In patent publication US20240117018A1:

Assays:
Test in all cases: cell-based or functional assay
[1] = molecular target: HIV-1 Env of pseudovirus 191955_A11 (HIV-1)
[2] = molecular target: HIV-1 Env of pseudovirus 235-47 (HIV-1)
[3] = molecular target: HIV-1 Env of pseudovirus 3817.v2.c59 (HIV-1)
[4] = molecular target: HIV-1 Env of pseudovirus 62357_14_D3_4589 (HIV-1)
[5] = molecular target: HIV-1 Env of pseudovirus 6244_13_B5_4576 (HIV-1)
[6] = molecular target: HIV-1 Env of pseudovirus 6480.v4.c25 (HIV-1)
[7] = molecular target: HIV-1 Env of pseudovirus 6535.3 (HIV-1)
[8] = molecular target: HIV-1 Env of pseudovirus 6811.v7.c18 (HIV-1)
[9] = molecular target: HIV-1 Env of pseudovirus 928-28 (HIV-1)
[10] = molecular target: HIV-1 Env of pseudovirus AC10.0.29 (HIV-1)
[11] = molecular target: HIV-1 Env of pseudovirus BJOX015000.11.5 (HIV-1)
[12] = molecular target: HIV-1 Env of pseudovirus CAAN5342.A2 (HIV-1)
[13] = molecular target: HIV-1 Env of pseudovirus CAP45.2.00.G3 (HIV-1)
[14] = molecular target: HIV-1 Env of pseudovirus CNE17 (HIV-1)
[15] = molecular target: HIV-1 Env of pseudovirus CNE19 (HIV-1)
[16] = molecular target: HIV-1 Env of pseudovirus CNE20 (HIV-1)
[17] = molecular target: HIV-1 Env of pseudovirus CNE30 (HIV-1)
[18] = molecular target: HIV-1 Env of pseudovirus CNE52 (HIV-1)
[19] = molecular target: HIV-1 Env of pseudovirus CNE53 (HIV-1)
[20] = molecular target: HIV-1 Env of pseudovirus Ce1172_H1 (HIV-1)
[21] = molecular target: HIV-1 Env of pseudovirus Ce2010_F5 (HIV-1)
[22] = molecular target: HIV-1 Env of pseudovirus Ce2060_G9 (HIV-1)
[23] = molecular target: HIV-1 Env of pseudovirus Du422.1 (HIV-1)
[24] = molecular target: HIV-1 Env of pseudovirus MS208.A1 (HIV-1)
[25] = molecular target: HIV-1 Env of pseudovirus PVO.4 (HIV-1)
[26] = molecular target: HIV-1 Env of pseudovirus Q259.d2.17 (HIV-1)
[27] = molecular target: HIV-1 Env of pseudovirus Q461.e2 (HIV-1)
[28] = molecular target: HIV-1 Env of pseudovirus Q842.d12 (HIV-1)
[29] = molecular target: HIV-1 Env of pseudovirus SC05_8C11_2344 (HIV-1)
[30] = molecular target: HIV-1 Env of pseudovirus SC422661.8 (HIV-1)
[31] = molecular target: HIV-1 Env of pseudovirus TRO.11 (HIV-1)
[32] = molecular target: HIV-1 Env of pseudovirus WITO4160.33 (HIV-1)
[33] = molecular target: HIV-1 Env of pseudovirus X1632_S2_B10 (HIV-1)
[34] = molecular target: HIV-1 Env of pseudovirus ZM135M.PL10a (HIV-1)
[35] = molecular target: HIV-1 Env of pseudovirus ZM197M.PB7 (HIV-1)
[36] = molecular target: HIV-1 Env of pseudovirus ZM233M.PB6 (HIV-1)
[37] = molecular target: HIV-1 Env of pseudovirus ZM247v1(Rev-) (HIV-1)
[38] = molecular target: HIV-1 Env of pseudovirus ZM53M.PB12 (HIV-1)

## PGT128 (antibody)
[1]
  neutralization IC50: 14.2 µg/mL
  neutralization IC80: > 50 µg/mL
[2]
  IC50 (Titer in TZM.bl cells): > 50 µg/mL
  IC80 (Titer in TZM.bl cells): > 50 µg/mL
[3]
  IC50 (Titer in TZM.bl cells): 0.003 µg/mL
  IC80 (Titer in TZM.bl cells): 0.023 µg/mL
[4]
  neutralization IC50: 1.14 µg/mL
  neutralization IC80: > 50 µg/mL
[5]
  neutralization IC50: 0.02 µg/mL
  neutralization IC80: 0.076 µg/mL
[6]
  IC50 (Titer in TZM.bl cells): 0.003 µg/mL
  IC80 (Titer in TZM.bl cells): 0.019 µg/mL
[7]
  neutralization IC50: 0.004 µg/mL
  neutralization IC80: 0.016 µg/mL
[8]
  IC50 (Titer in TZM.bl cells): 0.003 µg/mL
  IC80 (Titer in TZM.bl cells): 0.05 µg/mL
[9]
  neutralization IC50: > 50 µg/mL
  neutralization IC80: > 50 µg/mL
[10]
  neutralization IC50: 0.008 µg/mL
  neutralization IC80: 0.018 µg/mL
[11]
  IC50 (Titer in TZM.bl cells): 0.001 µg/mL
  IC80 (Titer in TZM.bl cells): 0.011 µg/mL
[12]
  neutralization IC50: 0.514 µg/mL
  neutralization IC80: > 50 µg/mL
[13]
  neutralization IC50: > 50 µg/mL
  neutralization IC80: > 50 µg/mL
[14]
  neutralization IC50: 0.432 µg/mL
  neutralization IC80: 1.99 µg/mL
[15]
  neutralization IC50: > 50 µg/mL
  neutralization IC80: > 50 µg/mL
[16]
  neutralization IC50: 0.001 µg/mL
  neutralization IC80: 0.004 µg/mL
[17]
  neutralization IC50: 2.06 µg/mL
  neutralization IC80: 12.6 µg/mL
[18]
  neutralization IC50: > 50 µg/mL
  neutralization IC80: > 50 µg/mL
[19]
  neutralization IC50: 0.01 µg/mL
  neutralization IC80: 0.049 µg/mL
[20]
  neutralization IC50: 0.013 µg/mL
  neutralization IC80: 0.038 µg/mL
[21]
  neutralization IC50: > 50 µg/mL
  neutralization IC80: > 50 µg/mL
[22]
  neutralization IC50: > 50 µg/mL
  neutralization IC80: > 50 µg/mL
[23]
  neutralization IC50: 0.039 µg/mL
  neutralization IC80: 0.113 µg/mL
[24]
  neutralization IC50: > 50 µg/mL
  neutralization IC80: > 50 µg/mL
[25]
  neutralization IC50: 0.011 µg/mL
  neutralization IC80: 0.028 µg/mL
[26]
  neutralization IC50: > 50 µg/mL
  neutralization IC80: > 50 µg/mL
[27]
  neutralization IC50: > 50 µg/mL
  neutralization IC80: > 50 µg/mL
[28]
  neutralization IC50: 0.008 µg/mL
  neutralization IC80: 0.102 µg/mL
[29]
  neutralization IC50: 0.017 µg/mL
  neutralization IC80: 0.041 µg/mL
[30]
  neutralization IC50: 1.08 µg/mL
  neutralization IC80: 18.4 µg/mL
[31]
  neutralization IC50: 0.019 µg/mL
  neutralization IC80: 0.045 µg/mL
[32]
  neutralization IC50: > 50 µg/mL
  neutralization IC80: > 50 µg/mL
[33]
  IC50 (Titer in TZM.bl cells): > 50 µg/mL
  IC80 (Titer in TZM.bl cells): > 50 µg/mL
[34]
  neutralization IC50: > 50 µg/mL
  neutralization IC80: > 50 µg/mL
[35]
  neutralization IC50: > 50 µg/mL
  neutralization IC80: > 50 µg/mL
[36]
  neutralization IC50: > 50 µg/mL
  neutralization IC80: > 50 µg/mL
[37]
  neutralization IC50: 0.021 µg/mL
  neutralization IC80: 0.081 µg/mL
[38]
  neutralization IC50: > 50 µg/mL
  neutralization IC80: > 50 µg/mL

## PGT145 (antibody)
[1]
  neutralization IC50: < 0.001 µg/mL
  neutralization IC80: < 0.001 µg/mL
[2]
  IC50 (Titer in TZM.bl cells): 3.21 µg/mL
  IC80 (Titer in TZM.bl cells): 36 µg/mL
[3]
  IC50 (Titer in TZM.bl cells): > 50 µg/mL
  IC80 (Titer in TZM.bl cells): > 50 µg/mL
[4]
  neutralization IC50: > 50 µg/mL
  neutralization IC80: > 50 µg/mL
[5]
  neutralization IC50: 7.27 µg/mL
  neutralization IC80: 44.5 µg/mL
[6]
  IC50 (Titer in TZM.bl cells): > 50 µg/mL
  IC80 (Titer in TZM.bl cells): > 50 µg/mL
[7]
  neutralization IC50: > 50 µg/mL
  neutralization IC80: > 50 µg/mL
[8]
  IC50 (Titer in TZM.bl cells): > 50 µg/mL
  IC80 (Titer in TZM.bl cells): > 50 µg/mL
[9]
  neutralization IC50: > 50 µg/mL
  neutralization IC80: > 50 µg/mL
[10]
  neutralization IC50: 0.01 µg/mL
  neutralization IC80: 0.025 µg/mL
[11]
  IC50 (Titer in TZM.bl cells): > 50 µg/mL
  IC80 (Titer in TZM.bl cells): > 50 µg/mL
[12]
  neutralization IC50: 6.67 µg/mL
  neutralization IC80: 25.5 µg/mL
[13]
  neutralization IC50: 0.001 µg/mL
  neutralization IC80: 0.007 µg/mL
[14]
  neutralization IC50: 0.091 µg/mL
  neutralization IC80: 1.16 µg/mL
[15]
  neutralization IC50: 0.103 µg/mL
  neutralization IC80: 1.13 µg/mL
[16]
  neutralization IC50: 0.318 µg/mL
  neutralization IC80: 6.97 µg/mL
[17]
  neutralization IC50: > 50 µg/mL
  neutralization IC80: > 50 µg/mL
[18]
  neutralization IC50: 0.02 µg/mL
  neutralization IC80: 0.091 µg/mL
[19]
  neutralization IC50: 0.006 µg/mL
  neutralization IC80: 0.084 µg/mL
[20]
  neutralization IC50: 0.26 µg/mL
  neutralization IC80: 2.06 µg/mL
[21]
  neutralization IC50: > 50 µg/mL
  neutralization IC80: > 50 µg/mL
[22]
  neutralization IC50: 0.016 µg/mL
  neutralization IC80: 0.205 µg/mL
[23]
  neutralization IC50: 22.6 µg/mL
  neutralization IC80: > 50 µg/mL
[24]
  neutralization IC50: 0.334 µg/mL
  neutralization IC80: 18 µg/mL
[25]
  neutralization IC50: 0.192 µg/mL
  neutralization IC80: 0.87 µg/mL
[26]
  neutralization IC50: 44.2 µg/mL
  neutralization IC80: > 50 µg/mL
[27]
  neutralization IC50: 7.8 µg/mL
  neutralization IC80: > 50 µg/mL
[28]
  neutralization IC50: 0.032 µg/mL
  neutralization IC80: 0.552 µg/mL
[29]
  neutralization IC50: 0.093 µg/mL
  neutralization IC80: 0.248 µg/mL
[30]
  neutralization IC50: 0.024 µg/mL
  neutralization IC80: 0.082 µg/mL
[31]
  neutralization IC50: 0.04 µg/mL
  neutralization IC80: 0.118 µg/mL
[32]
  neutralization IC50: < 0.001 µg/mL
  neutralization IC80: 0.001 µg/mL
[33]
  IC50 (Titer in TZM.bl cells): 0.012 µg/mL
  IC80 (Titer in TZM.bl cells): 2.03 µg/mL
[34]
  neutralization IC50: > 50 µg/mL
  neutralization IC80: > 50 µg/mL
[35]
  neutralization IC50: 0.628 µg/mL
  neutralization IC80: 5.24 µg/mL
[36]
  neutralization IC50: 0.025 µg/mL
  neutralization IC80: 0.68 µg/mL
[37]
  neutralization IC50: 7.19 µg/mL
  neutralization IC80: > 50 µg/mL
[38]
  neutralization IC50: 0.367 µg/mL
  neutralization IC80: 11.8 µg/mL
